These results are taken from US20250108090A1 (published 2025).

The target in test [1] is T1, human apoptosis inhibitor of macrophage (AIM) (human, UniProt O43866 20-347).
T1 construct: also called human AIM; human rAIM
T1 sequence: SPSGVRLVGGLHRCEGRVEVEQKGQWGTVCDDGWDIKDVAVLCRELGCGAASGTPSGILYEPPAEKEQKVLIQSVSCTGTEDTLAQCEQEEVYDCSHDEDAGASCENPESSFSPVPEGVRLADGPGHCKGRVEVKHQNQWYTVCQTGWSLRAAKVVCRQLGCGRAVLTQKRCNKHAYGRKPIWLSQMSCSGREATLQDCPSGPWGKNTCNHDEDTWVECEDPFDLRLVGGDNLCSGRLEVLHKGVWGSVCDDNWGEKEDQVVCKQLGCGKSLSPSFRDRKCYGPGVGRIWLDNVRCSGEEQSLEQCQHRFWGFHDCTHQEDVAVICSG
Put plainly: ELISA, DAMP coated at 2 µg/mL, AIM in solution (FIG. 3A). From the text: (§1) Therefore, AIM is considered to stably bind to DAMPs through two independent binding modes, namely, charge-based interaction and disulfide bond formation. These two binding sites are also used to bind AIM and IgM pentamer, as previously reported by the present inventors (Hiramoto et al., (2018) (the aforementioned)). […] Furthermore, IgM pentamer not bound to AIM inhibited the binding of AIM to DAMPs in a dose-dependent manner (FIG. 3G). That is, the binding to IgM pentamer functionally inactivates AIM in the binding to DAMPs. Furthermore, the present inventors evaluated under a fluorescence microscope whether the trap and uptake of PRDX1, HMGB1, and S100A9 by macrophages in vitro is inhibited in the presence of rAIM. […] It is known that somewhat larger molecules are more easily taken up by phagocytes (Aderem & Underhill, (1999). Mechanisms of Phagocytosis in Macrophages. Annu. Rev. Immunol. 17, 593-623.; Sarrias et al., (2005) (the aforementioned); Canton et al., Scavenger receptors in homeostasis and immunity. Nat. Rev. Immunol. 13, 621-634.). Therefore, induction of PRDX1 aggregation by AIM is further advantageous for PRDX1 phagocytosis.
Background: An ELISA detects its analyte on a solid surface through an enzyme-linked reagent.

Test [2] addresses T1, human apoptosis inhibitor of macrophage …. Briefly: ELISA, DAMP coated at 2 µg/mL, AIM in solution (FIG. 4).
Excerpt: as §1

The target in test [3] is T2, mouse AIM 2CS mutant (mouse, UniProt Q9QWK4 22-352).
T2 construct: Isolated cysteine of the SRCR2 domain replaced by serine; also called mouse 2CS mutant; 2CS AIM mutant
T2 sequence (looked up): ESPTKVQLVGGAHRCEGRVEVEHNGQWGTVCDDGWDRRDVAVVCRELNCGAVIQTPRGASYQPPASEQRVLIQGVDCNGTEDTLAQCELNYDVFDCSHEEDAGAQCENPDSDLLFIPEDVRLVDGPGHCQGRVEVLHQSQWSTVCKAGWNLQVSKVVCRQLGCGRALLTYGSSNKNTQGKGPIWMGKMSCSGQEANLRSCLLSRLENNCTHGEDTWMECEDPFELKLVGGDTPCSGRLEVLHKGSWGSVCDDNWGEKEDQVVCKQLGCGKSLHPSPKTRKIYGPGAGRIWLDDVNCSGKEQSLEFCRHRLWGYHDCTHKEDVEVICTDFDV
Put plainly: ELISA on coated DAMP (FIG. 3E). As to the method:
96-well ELISA plates were coated with DAMPs and control proteins resolved in Bicarbonate buffer (0.1 M NaHCO₃/Na₂CO₃, pH 9.6) at 2 μg/mL unless otherwise specified O/N at 4° C. After the plates were washed with tris buffered saline-tween (TBS-T) four times, they were coated with blocking buffer (1% Casein/TBS) for 2 h at RT. After a wash with TBS-T, AIM resolved in a dilution buffer (0.2% Casein/TBS/2 mM CaCl₂) at various concentrations was added to the well and plates were incubated for 1 h at RT. After 5-times wash with TBS-T/2 mM CaCl₂, biotinylated anti-mouse or human AIM antibody (clone #35 for mouse, clone 7 for human) was added to the wells and incubated for 1 h at RT. After 4-times wash with TBS-T/2 mM CaCl₂, Streptavidin-HRP diluted in 0.2% Casein/TBS/2 mM CaCl₂ was added to the wells and incubated for 1 h at RT. After 4-times wash with TBS-T/2 mM CaCl₂, TMB was added and incubated at RT for 10-25 min. The reaction was stopped by adding 1 N H₂SO₄ and thereby the absorbance at OD 450 nm was analyzed using a multiple plate reader.

Test [4] has as its target T3, mouse apoptosis inhibitor of macrophage (AIM), wild-type recombinant (mouse, UniProt Q9QWK4 22-352).
T3 construct: mature; also called rAIM; mouse AIM
T3 sequence (looked up): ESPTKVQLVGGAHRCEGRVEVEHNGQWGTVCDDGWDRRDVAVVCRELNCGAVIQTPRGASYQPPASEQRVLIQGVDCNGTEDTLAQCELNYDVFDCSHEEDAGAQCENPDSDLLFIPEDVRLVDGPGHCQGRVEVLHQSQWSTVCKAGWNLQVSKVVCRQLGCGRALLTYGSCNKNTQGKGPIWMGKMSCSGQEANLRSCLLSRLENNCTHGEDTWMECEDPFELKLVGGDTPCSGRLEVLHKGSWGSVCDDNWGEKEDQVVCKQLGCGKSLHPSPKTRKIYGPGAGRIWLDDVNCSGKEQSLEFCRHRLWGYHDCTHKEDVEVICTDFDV
Put plainly: ELISA, DAMP coated at 2 µg/mL, AIM in solution (FIG. 3A).
Excerpt: as §1

The target of test [5] is T3, mouse apoptosis inhibitor of macrophage …. Put plainly: ELISA, DAMP coated at 2 µg/mL, AIM in solution (FIG. 4).
Excerpt: as §1

B1: human S100A9 (9254-S9-050, R&D Systems) (ligand, UniProt P06702 1-114, looked up)
chain: MTCKMSQLERNIETIINTFHQYSVKLGHPDTLNQGEFKELVRKDLQNFLKKENKNEKVIEHIMEDLDTNADKQLSFEEFIMLMARLTWASHEKMHEGDEGPGHHHKPGLGEGTP
In the case of B1, the binding result in test [1] was “binds”.

B2: human S100A8 (9876-58-050, R&D Systems) (ligand, UniProt P05109 1-93, looked up)
chain: MLTELEKALNSIIDVYHKYSLIKGNFHAVYRDDLKKLLETECPQYIRKKGADVWFKELDINTDGAVNFQEFLILVIKMGVAAHKKSHEESHKE
As to B2, in test [2], the binding result is “binds”.

B3: human S100A8/A9 (8226-S8-050, R&D Systems) (ligand)
chain 1: MLTELEKALNSIIDVYHKYSLIKGNFHAVYRDDLKKLLETECPQYIRKKGADVWFKELDINTDGAVNFQEFLILVIKMGVAAHKKSHEESHKE
chain 2: MTCKMSQLERNIETIINTFHQYSVKLGHPDTLNQGEFKELVRKDLQNFLKKENKNEKVIEHIMEDLDTNADKQLSFEEFIMLMARLTWASHEKMHEGDEGPGHHHKPGLGEGTP
notes: Complex of S100A8 and S100A9 as bought; also called S100A8/9
As to B3, the binding result in test [2] was “binds”.

B4: human HMGB1 (1690-HMB-050, R&D Systems) (ligand, UniProt P09429 1-215, looked up)
chain: MGKGDPKKPRGKMSSYAFFVQTCREEHKKKHPDASVNFSEFSKKCSERWKTMSAKEKGKFEDMAKADKARYEREMKTYIPPKGETKKKFKDPNAPKRPPSAFFLFCSEYRPKIKGEHPGLSIGDVAKKLGEMWNNTAADDKQPYEKKAAKLKEKYEKDIAAYRAKGKPDAAKKGVVKAEKSKKKKEEEEDEEDEEDEEEEEDEEDEDEEEDDDDE
notes: also called high-mobility-group-box 1
For the molecule B4, the results for the binding result in test [3], in test [4] and in test [1] were “no binding”, “binds” and “binds”, respectively.

B5: mouse PRDX2 with a HA tag (generated in house) (ligand, UniProt Q61171 1-198, looked up)
chain: MASGNAQIGKSAPDFTATAVVDGAFKEIKLSDYRGKYVVLFFYPLDFTFVCPTEIIAFSDHAEDFRKLGCEVLGVSVDSQFTHLAWINTPRKEGGLGPLNIPLLADVTKSLSQNYGVLKNDEGIAYRGLFIIDAKGVLRQITVNDLPVGRSVDEALRLVQAFQYTDEHGEVCPAGWKPGSDTIKPNVDDSKEYFSKHN
notes: also called PRDXs; not shown: HA tag
Take B5: the binding result in test [5] is “binds”.

B6: mouse S100A8 (9877-S8-050, R&D Systems) (ligand, UniProt P27005 1-89, looked up)
chain: MPSELEKALSNLIDVYHNYSNIQGNHHALYKNDFKKMVTTECPQFVQNINIENLFRELDINSDNAINFEEFLAMVIKVGVASHKDSHKE
In the case of B6, the binding result in test [5] is “binds”.

B7: mouse PRDX1 with a HA tag (generated in house) (ligand, UniProt P35700 1-199, looked up)
chain: MSSGNAKIGYPAPNFKATAVMPDGQFKDISLSEYKGKYVVFFFYPLDFTFVCPTEIIAFSDRADEFKKLNCQVIGASVDSHFCHLAWINTPKKQGGLGPMNIPLISDPKRTIAQDYGVLKADEGISFRGLFIIDDKGILRQITINDLPVGRSVDEIIRLVQAFQFTDKHGEVCPAGWKPGSDTIKPDVNKSKEYFSKQK
notes: also called peroxiredoxin 1; mouse PRDXs with a HA tag; not shown: HA tag
B7: the figures for the binding result in test [3] and in test [4] were “no binding” and “binds”, respectively.

B8: mouse S100A9 (2065-S9-050, R&D Systems) (ligand, UniProt P31725 1-113, looked up)
chain: MANKAPSQMERSITTIIDTFHQYSRKEGHPDTLSKKEFRQMVEAQLATFMKKEKRNEALINDIMEDLDTNQDNQLSFEECMMLMAKLIFACHEKLHENNPRGHGHSHGKGCGK
Take B8: the binding result in test [3] is reported as “no binding”; in test [4], “binds”.

B9: mouse S100A8/A9 (8916-S8-050, R&D Systems) (ligand)
chain 1: MPSELEKALSNLIDVYHNYSNIQGNHHALYKNDFKKMVTTECPQFVQNINIENLFRELDINSDNAINFEEFLAMVIKVGVASHKDSHKE
chain 2: MANKAPSQMERSITTIIDTFHQYSRKEGHPDTLSKKEFRQMVEAQLATFMKKEKRNEALINDIMEDLDTNQDNQLSFEECMMLMAKLIFACHEKLHENNPRGHGHSHGKGCGK
notes: as for B3
Consider B9, for which the binding result in test [5] is “binds”.

B10: mouse PRDX6 with a HA tag (generated in house) (ligand, UniProt O08709 1-224, looked up)
chain: MPGGLLLGDEAPNFEANTTIGRIRFHDFLGDSWGILFSHPRDFTPVCTTELGRAAKLAPEFAKRNVKLIALSIDSVEDHLAWSKDINAYNGETPTEKLPFPIIDDKGRDLAILLGMLDPVEKDDNNMPVTARVVFIFGPDKKLKLSILYPATTGRNFDEILRVVDSLQLTGTKPVATPVDWKKGESVMVVPTLSEEEAKQCFPKGVFTKELPSGKKYLRYTPQP
notes: as for B5
As for B10, the binding result in test [5] is recorded as “binds”.
